Test results reported in PMC10374538, “Ion selectivity and rotor coupling of the Vibrio flagellar sodium-driven stator unit” (Nature Communications, 2023).

What was measured:
[1] = biological target: the molecule itself; assay: cryo-EM structure; full length, non-cleaved VaPomAB reconstituted into saposin nanodiscs with E. coli polar lipids; 6.3 Å map
[2] = biological target: the molecule itself; assay: cryo-EM structure; VaPomAB (PomB PGB removed) co-expressed and co-purified, in LMNG detergent, 20 mM HEPES pH 7.5, 300 mM NaCl, 0.0125% CHAPSO added; ~2.5 Å

Protein	binding result [1]	stoichiometry N [2]
Vibrio alginolyticus PomB, full length, non-cleaved (without protease insertion) (natural protein, That the tag is on PomB is surmised; Only a 6.3 Å map (EMD-16214) was deposited, no model; also called full length VaPomAB) MDDEDNKCDCPPPGLPLWMGTFADLMSLLMCFFVLLLSFSEMDVLKFKQIAGSMKFAFGVQNQLEVKDIPKGTSIIAQEFRPGRPEPTPIDVIMQQTMDITQQTLEFHEGESDRAGGTKRDEGKLTGGQSPATSTQNNESAEADMQQQQSKEMSQEMETLMESIKKALEREIEQGAIEVENLGQQIVIRMREKGAFPEGSAFLQPKFRPLVRQIAELVKDVPGIVRVSGHTDNRPLDSELYRSNWDLSSQRAVSVAQEMEKVRGFSHQRLRVRGMADTEPLLPNDSDDNRALNRRVEISIMQGEPLYSEEVPVIQ	binds	
Vibrio alginolyticus PomB without the peptidoglycan binding domain (PGB removed by HRV 3C protease at a site inserted between Gln95 and Gln96) (domain or fragment, PomB of Vibrio alginolyticus (ATCC 17749), from the N-terminus to Gln95 (TM helix, plug motif and what follows, up to the inserted protease site); That the twin-Strep-tag sat at the C-terminus of PomB and left with the PGB domain is surmised; also called VaPomB; VaPomAB without PomB PGB; not shown: twin-Strep-tag, C-terminal, cleaved) MDDEDNKCDCPPPGLPLWMGTFADLMSLLMCFFVLLLSFSEMDVLKFKQIAGSMKFAFGVQNQLEVKDIPKGTSIIAQEFRPGRPEPTPIDVIMQGTLEVLFQ		2
